The chains are these.
B2: Claudin-1 tagged with AcGFP or DsRED (natural protein, UniProt O95832 1-211, looked up)
chain: MANAGLQLLGFILAFLGWIGAIVSTALPQWRIYSYAGDNIVTAQAMYEGLWMSCVSQSTGQIQCKVFDSLLNLSSTLQATRALMVVGILLGVIAIFVATVGMKCMKCLEDDEVQKMRMAVIGGAIFLLAGLAILVATAWYGNRIVQEFYDPMTPVNARYEFGQALFTGWAAASLCLLGGALLCCSCPRKTTSYPTPRPYPKPAPSSGKDYV

What all share (test): FRET or BRET
The target in assay [1] is CD81 tagged with AcGFP or DsRED (UniProt P60033).
For assay [2], the target named is T1, DsRED-tagged Occludin (UniProt Q16625 1-522).
T1 sequence (looked up): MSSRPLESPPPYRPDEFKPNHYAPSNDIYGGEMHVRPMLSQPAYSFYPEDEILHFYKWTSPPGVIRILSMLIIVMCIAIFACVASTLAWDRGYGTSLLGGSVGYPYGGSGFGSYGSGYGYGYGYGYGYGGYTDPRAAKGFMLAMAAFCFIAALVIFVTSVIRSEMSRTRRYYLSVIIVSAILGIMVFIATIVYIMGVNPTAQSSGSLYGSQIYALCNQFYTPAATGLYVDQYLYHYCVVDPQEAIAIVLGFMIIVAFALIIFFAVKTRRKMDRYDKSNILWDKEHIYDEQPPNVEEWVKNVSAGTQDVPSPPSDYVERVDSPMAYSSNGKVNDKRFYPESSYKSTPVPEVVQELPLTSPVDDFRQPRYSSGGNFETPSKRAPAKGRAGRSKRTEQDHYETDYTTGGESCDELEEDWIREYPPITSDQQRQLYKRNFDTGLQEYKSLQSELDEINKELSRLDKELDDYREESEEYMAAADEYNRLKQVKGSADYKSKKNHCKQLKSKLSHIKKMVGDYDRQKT

Assay [3] deals with B2.
Assay [4] concerns the target T2, CD81 tagged with AcGFP or DsRED (UniProt P60033 1-236).
T2 sequence (looked up): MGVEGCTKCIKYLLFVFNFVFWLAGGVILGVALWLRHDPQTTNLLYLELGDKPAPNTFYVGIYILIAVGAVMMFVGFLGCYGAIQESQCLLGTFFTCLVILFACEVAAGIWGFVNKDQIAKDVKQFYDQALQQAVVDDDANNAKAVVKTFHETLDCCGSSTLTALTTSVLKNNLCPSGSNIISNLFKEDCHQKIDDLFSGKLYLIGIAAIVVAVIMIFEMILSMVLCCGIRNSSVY

Assay [5] has as its target T3, CD81 tagged with AcGFP or DsRED, P60033.
T3 chain: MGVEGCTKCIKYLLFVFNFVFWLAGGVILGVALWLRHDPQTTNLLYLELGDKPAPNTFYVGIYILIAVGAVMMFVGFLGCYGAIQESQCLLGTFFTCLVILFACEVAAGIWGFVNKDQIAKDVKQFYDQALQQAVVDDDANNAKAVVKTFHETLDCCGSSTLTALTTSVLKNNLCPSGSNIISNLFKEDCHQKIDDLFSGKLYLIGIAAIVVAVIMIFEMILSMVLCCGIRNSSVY
The settings on record: remark: other sources report otherwise.

In assay [1], “Claudin-1 tagged with AcGFP or DsRED (from UniProt O95832 1-211) (natural protein)” yielded a %FRET of 25% and a %FRET (after 10 mM MβCD, 1 h) of 35%.

B1: AcGFP-tagged Claudin-11 (natural protein, UniProt O75508 1-207, looked up)
chain: MVATCLQVVGFVTSFVGWIGVIVTTSTNDWVVTCGYTIPTCRKLDELGSKGLWADCVMATGLYHCKPLVDILILPGYVQACRALMIAASVLGLPAILLLLTVLPCIRMGQEPGVAKYRRAQLAGVLLILLALCALVATIWFPVCAHRETTIVSFGYSLYAGWIGAVLCLVGGCVILCCAGDAQAFGENRFYYTAGSSSPTHAKSAHV
B1: in assay [2], the “%FRET” value came to 23%.
As to B2, the “%FRET” value in assay [2] was 48%.

B3: AcGFP-tagged Claudin-12 (natural protein, UniProt P56749 1-244, looked up)
chain: MGCRDVHAATVLSFLCGIASVAGLFAGTLLPNWRKLRLITFNRNEKNLTVYTGLWVKCARYDGSSDCLMYDTTWYSSVDQLDLRVLQFALPLSMLIAMGALLLCLIGMCNTAFRSSVPNIKLAKCLVNSAGCHLVAGLLFFLAGTVSLSPSIWVIFYNIHLNKKFEPVFSFDYAVYVTIASAGGLFMTSLILFIWYCTCKSLPSPFWQPLYSHPPSMHTYSQPYSARSRLSAIEIDIPVVSHTT
As to B3, the “%FRET” value in assay [2] came to 38%.

B4: AcGFP-tagged Claudin-4 (natural protein, UniProt O14493 1-209, looked up)
chain: MASMGLQVMGIALAVLGWLAVMLCCALPMWRVTAFIGSNIVTSQTIWEGLWMNCVVQSTGQMQCKVYDSLLALPQDLQAARALVIISIIVAALGVLLSVVGGKCTNCLEDESAKAKTMIVAGVVFLLAGLMVIVPVSWTAHNIIQDFYNPLVASGQKREMGASLYVGWAASGLLLLGGGLLCCNCPPRTDKPYSAKYSAARSAAASNYV
B4: the “%FRET” value in assay [3] amounted to 18%.

B5: AcGFP-tagged Claudin-17 (natural protein, UniProt P56750 1-224, looked up)
chain: MAFYPLQIAGLVLGFLGMVGTLATTLLPQWRVSAFVGSNIIVFERLWEGLWMNCIRQARVRLQCKFYSSLLALPPALETARALMCVAVALSLIALLIGICGMKQVQCTGSNERAKAYLLGTSGVLFILTGIFVLIPVSWTANIIIRDFYNPAIHIGQKRELGAALFLGWASAAVLFIGGGLLCGFCCCNRKKQGYRYPVPGYRVPHTDKRRNTTMLSKTSTSYV
For B5, the “%FRET” value in assay [2] is 40%.

B6: AcGFP-tagged Claudin-6 (natural protein, UniProt P56747 1-220, looked up)
chain: MASAGMQILGVVLTLLGWVNGLVSCALPMWKVTAFIGNSIVVAQVVWEGLWMSCVVQSTGQMQCKVYDSLLALPQDLQAARALCVIALLVALFGLLVYLAGAKCTTCVEEKDSKARLVLTSGIVFVISGVLTLIPVCWTAHAIIRDFYNPLVAEAQKRELGASLYLGWAASGLLLLGGGLLCCTCPSGGSQGPSHYMARYSTSAPAISRGPSEYPTKNYV
Turning to B6, the “%FRET” value amounted to 50% in assay [4], 27% in assay [2] and 31% in assay [3].

B7: AcGFP-tagged Claudin-9 (natural protein, UniProt O95484 1-217, looked up)
chain: MASTGLELLGMTLAVLGWLGTLVSCALPLWKVTAFIGNSIVVAQVVWEGLWMSCVVQSTGQMQCKVYDSLLALPQDLQAARALCVIALLLALLGLLVAITGAQCTTCVEDEGAKARIVLTAGVILLLAGILVLIPVCWTAHAIIQDFYNPLVAEALKRELGASLYLGWAAAALLMLGGGLLCCTCPPPQVERPRGPRLGYSIPSRSGASGLDKRDYV
For B7, the “%FRET” value in assay [4] turned out to be 63%; in assay [2], 18%; in assay [3], 18%.

B8: CD81 tagged with AcGFP or DsRED, P60033 1-236 (natural protein)
chain: MGVEGCTKCIKYLLFVFNFVFWLAGGVILGVALWLRHDPQTTNLLYLELGDKPAPNTFYVGIYILIAVGAVMMFVGFLGCYGAIQESQCLLGTFFTCLVILFACEVAAGIWGFVNKDQIAKDVKQFYDQALQQAVVDDDANNAKAVVKTFHETLDCCGSSTLTALTTSVLKNNLCPSGSNIISNLFKEDCHQKIDDLFSGKLYLIGIAAIVVAVIMIFEMILSMVLCCGIRNSSVY
Regarding B8, in assay [5], the %FRET (after 10 mM MβCD, 1 h) was determined as 55% and the %FRET (untreated cells) was 63%.

The values are drawn from publication PMC2898367 (The Journal of Biological Chemistry, 2010).
